Laboratory results: doi:10.1101/2020.02.14.947937 (bioRxiv, 2020)

Molecular target: the molecule itself
Test: cryo-EM structure

B1: mouse homomeric 5-HT3A receptor (receptor, UniProt P23979 24-489, looked up)
chain: SRRRATQARDTTQPALLRLSDHLLANYKKGVRPVRDWRKPTTVSIDVIMYAILNVDEKNQVLTTYIWYRQYWTDEFLQWTPEDFDNVTKLSIPTDSIWVPDILINEFVDVGKSPNIPYVYVHHRGEVQNYKPLQLVTACSLDIYNFPFDVQNCSLTFTSWLHTIQDINITLWRSPEEVRSDKSIFINQGEWELLEVFPQFKEFSIDISNSYAEMKFYVIIRRRPLFYAVSLLLPSIFLMVVDIVGFCLPPDSGERVSFKITLLLGYSVFLIIVSDTLPATAIGTPLIGVYFVVCMALLVISLAETIFIVRLVHKQDLQRPVPDWLRHLVLDRIAWILCLGEQPMAHRPPATFQANKTDDCSGSDLLPAMGNHCSHVGGPQDLEKTPRGRGSPLPPPREASLAVRGLLQELSSIRHFLEKRDEMREVARDWLRVGYVLDRLLFRIYLLAVLAYSITLVTLWSIWHYS
modifications: N-linked carbohydrates
stoichiometry N: 5
